Assay results from patent US20230056470A1, “USES OF ANTI-TGF-BETA ANTIBODIES AND CHECKPOINT INHIBITORS FOR THE TREATMENT OF PROLIFERATIVE DISEASES” (NOVARTIS AG, priority 2019, published 2023).

Tests used:
[1] = Population PK analysis and model-based simulations of NIS793 (dose escalation phase of CNIS793X2101); parameters: species or system human
Experimental: This is consistent with the observation that NIS793 PK appears dose proportional and time-independent based on the non-compartmental analyses.
Further a dose of 1400 mg would also match exposure observed at 20 mg/kg.

[2] = Clinical PK of NIS793, study CNIS793X2101 (single agent and combination with PDR001; escalation and expansion; cycles 1 and 3); type: in vivo, human
[3] = Clinical PK of PDR001 in combination with NIS793, study CNIS793X2101; type: in vivo, human; settings: 100 or 300 mg Q3W and 400 mg Q4W
[4] = Mean, cycle 1, NIS793 0.3 mg/kg Q3W + PDR 100 mg Q3W, escalation
[5] = Mean, cycle 1, NIS793 0.3 mg/kg Q3W + PDR 300 mg Q3W, escalation
[6] = Mean, cycle 1, NIS793 0.3 mg/kg Q3W Liquid, single agent, escalation
[7] = Mean, cycle 1, NIS793 1 mg/kg Q3W + PDR 300 mg Q3W, escalation
[8] = Mean, cycle 1, NIS793 1 mg/kg Q3W Liquid, single agent, escalation
[9] = Mean, cycle 1, NIS793 1 mg/kg Q3W Lyophilisate, single agent, escalation
[10] = Mean, cycle 1, NIS793 3 mg/kg Q3W + PDR 300 mg Q3W, escalation
[11] = Mean, cycle 1, NIS793 10 mg/kg Q3W + PDR 300 mg Q3W, escalation
[12] = Mean, cycle 1, NIS793 20 mg/kg Q2W + PDR 400 mg Q4W, escalation
[13] = Mean, cycle 1, NIS793 30 mg/kg Q2W + PDR 400 mg Q4W, escalation
[14] = Mean, cycle 1, NIS793 30 mg/kg Q3W + PDR 300 mg Q3W, escalation
[15] = cycle 1, NIS793 2100 mg Q3W + PDR 300 mg Q3W, MSS-CRC, expansion, mean
[16] = cycle 1, NIS793 2100 mg Q3W + PDR 300 mg Q3W, NSCLC, expansion, mean
[17] = cycle 3, NIS793 0.3 mg/kg Q3W + PDR 100 mg Q3W, escalation, mean
[18] = cycle 3, NIS793 0.3 mg/kg Q3W + PDR 300 mg Q3W, escalation, mean
[19] = cycle 3, NIS793 0.3 mg/kg Q3W Liquid, single agent, escalation, mean
[20] = cycle 3, NIS793 1 mg/kg Q3W + PDR 300 mg Q3W, escalation, mean
[21] = cycle 3, NIS793 1 mg/kg Q3W Liquid, single agent, escalation, mean
[22] = cycle 3, NIS793 1 mg/kg Q3W Lyophilisate, single agent, escalation, mean
[23] = cycle 3, NIS793 3 mg/kg Q3W + PDR 300 mg Q3W, escalation, mean
[24] = cycle 3, NIS793 10 mg/kg Q3W + PDR 300 mg Q3W, escalation, mean
[25] = cycle 3, NIS793 20 mg/kg Q2W + PDR 400 mg Q4W, escalation, mean
[26] = cycle 3, NIS793 30 mg/kg Q3W + PDR 300 mg Q3W, escalation, mean
[27] = cycle 3, NIS793 2100 mg Q3W + PDR 300 mg Q3W, MSS-CRC, expansion, mean (SD)

## NIS793: fully human IgG2, human/mouse cross-reactive, TGF-β-neutralizing antibody; heavy and light chain SEQ ID NOs: 9 and 10
[1]; dose escalation concentration data
  Population PK model that describes NIS793 pharmacokinetics: two compartment model with first order elimination from the central compartment
[1]; population PK model, CV %=40%
  Estimated exponent of body weight as covariate on clearance (power model): 0.55
[2]; 30 minute intravenous infusion, 0.3 mg/kg to 30 mg/kg
  Increase in NIS793 exposure (Cycle 1 Cmax and AUClast) with dose: approximately dose-proportional increase
[2]; [4]
  AUClast: 1360000 ng·h/mL
  Clast: 1400 ng/mL
  Cmax: 6440 ng/mL
[2]; [5]
  AUClast: 1700000 ng·h/mL
  Clast: 1530 ng/mL
  Cmax: 11200 ng/mL
[2]; [6]
  AUClast: 1140000 ng·h/mL
  Clast: 1060 ng/mL
  Cmax: 7180 ng/mL
[2]; [7]
  AUClast: 5850000 ng·h/mL
  Clast: 8790 ng/mL
  Cmax: 30800 ng/mL
[2]; [8]
  AUClast: 4170000 ng·h/mL
  Clast: 4320 ng/mL
  Cmax: 24900 ng/mL
[2]; [9]
  AUClast: 4770000 ng·h/mL
  Clast: 4780 ng/mL
  Cmax: 27600.0 ng/mL
[2]; [10]
  AUClast: 11400000 ng·h/mL
  Clast: 14300 ng/mL
  Cmax: 58400 ng/mL
[2]; [11]
  AUClast: 3750000 ng·h/mL
  Clast: 44800 ng/mL
  Cmax: 181000 ng/mL
[2]; [12]
  AUClast: 54500000 ng·h/mL
  Clast: 107000 ng/mL
  Cmax: 333000 ng/mL
[2]; [13]
  AUClast: 69100000 ng·h/mL
  Clast: 154000 ng/mL
  Cmax: 439000 ng/mL
[2]; [14]
  AUClast: 90900000 ng·h/mL
  Clast: 133000 ng/mL
  Cmax: 519000 ng/mL
[2]; [15]
  AUClast: 94700000 ng·h/mL
  Clast: 206000 ng/mL
  Cmax: 547000 ng/mL
[2]; [16]
  AUClast: 140000000 ng·h/mL
  Clast: 180000 ng/mL
  Cmax: 743000 ng/mL
[2]; [17]
  AUClast: 2530000 ng·h/mL
  Clast: 2960 ng/mL
  Cmax: 8990 ng/mL
[2]; [18]
  AUClast: 2960000 ng·h/mL
  Clast: 3330 ng/mL
  Cmax: 11600 ng/mL
[2]; [19]
  AUClast: 1820000 ng·h/mL
  Clast: 1900 ng/mL
  Cmax: 8750 ng/mL
[2]; [20]
  AUClast: 5630000 ng·h/mL
  Clast: 9710 ng/mL
  Cmax: 31300 ng/mL
[2]; [21]
  AUClast: 2910000 ng·h/mL
  Clast: 4290 ng/mL
  Cmax: 9830 ng/mL
[2]; [22]
  AUClast: 4090000 ng·h/mL
  Clast: 6350 ng/mL
  Cmax: 13800 ng/mL
[2]; [23]
  AUClast: 13900000 ng·h/mL
  Clast: 16100 ng/mL
  Cmax: 55200 ng/mL
[2]; [24]
  AUClast: 69200000 ng·h/mL
  Clast: 95900 ng/mL
  Cmax: 220000 ng/mL
[2]; [25]
  AUClast: 149000000 ng·h/mL
  Clast: 154000 ng/mL
  Cmax: 524000 ng/mL
[2]; [26]
  AUClast: 242000000 ng·h/mL
  Clast: 228000 ng/mL
  Cmax: 713000 ng/mL
[2]; [27]
  AUClast: 95500000 (88500000) h*ng/mL
  Clast: 341000 (313000) ng/mL
  Cmax: 590000 (319000) ng/mL
[2]; patients, across dose cohorts
  Between subject variability (CV %) for Cmax: 12.1 to 73.3%

## PDR001: anti-PD-1 inhibitor spartalizumab, also known as PDR001 (Novartis)
[3]
  PK of PDR001 in combination with NIS793 versus single agent data: appears to be similar to the single agent data
